Experimental data reported in patent US20190153059A1 (ADEPTHERA, published 2019).
Read-outs that look alike come from different tables or passages of the source. * marks the point of attachment. Palmitoyl = CCCCCCCCCCCCCCCC(=O)*

Legend:
Assay in all cases: cell-based or functional assay
CLR/RAMP2 receptor [1] = target: T1, CLR/RAMP2 receptor (UniProt Q16602 23-461; O60895 43-175, limits assumed)
CLR/RAMP1 receptor [2] = target: T2, CLR/RAMP1 receptor (UniProt Q16602 23-461; O60894 27-148, limits assumed)
T2 sequence (Q16602 23-461 limits assumed, chain 1 of 2): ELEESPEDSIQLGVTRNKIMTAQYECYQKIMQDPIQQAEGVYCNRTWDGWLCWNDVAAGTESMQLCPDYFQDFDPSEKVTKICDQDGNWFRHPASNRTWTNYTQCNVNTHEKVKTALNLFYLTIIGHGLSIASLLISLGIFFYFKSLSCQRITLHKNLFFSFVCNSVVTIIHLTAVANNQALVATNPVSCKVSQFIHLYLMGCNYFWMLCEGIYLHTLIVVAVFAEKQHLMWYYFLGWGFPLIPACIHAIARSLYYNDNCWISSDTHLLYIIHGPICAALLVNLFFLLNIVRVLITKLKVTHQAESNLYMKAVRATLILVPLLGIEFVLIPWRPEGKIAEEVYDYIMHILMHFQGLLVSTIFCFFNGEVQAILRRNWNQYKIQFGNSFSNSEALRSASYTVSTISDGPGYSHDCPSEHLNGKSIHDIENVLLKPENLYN
T2 sequence (O60894 27-148 limits assumed, chain 2 of 2): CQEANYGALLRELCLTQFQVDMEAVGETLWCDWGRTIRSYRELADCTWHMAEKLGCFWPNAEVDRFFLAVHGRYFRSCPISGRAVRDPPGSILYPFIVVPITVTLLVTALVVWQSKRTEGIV

CLR/RAMP2 receptor [3] = target: T1, CLR/RAMP2 receptor; remark: listed apart in the source
CLR/RAMP3 receptor = CLR/RAMP3 receptor (UniProt Q16602 23-461; O60896 24-148, limits assumed)
Sequence of CLR/RAMP3 receptor (Q16602 23-461 limits assumed, chain 1 of 2): as the sequence (Q16602 23-461 limits assumed, chain 1 of 2) above
Sequence of CLR/RAMP3 receptor (O60896 24-148 limits assumed, chain 2 of 2): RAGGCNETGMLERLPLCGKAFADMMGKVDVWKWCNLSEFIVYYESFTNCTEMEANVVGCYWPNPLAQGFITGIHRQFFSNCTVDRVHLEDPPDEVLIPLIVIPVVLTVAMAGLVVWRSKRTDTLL

CLR/RAMP1 receptor [4] = target: T2, CLR/RAMP1 receptor; remark: listed apart in the source
CLR/RAMP2 receptor [5] = target: T1, CLR/RAMP2 receptor; remark: listed apart in the source
[6] = target: neurotensin receptor 1 (NTSR1) (UniProt P30989 1-418, limits assumed)
Sequence of neurotensin receptor 1 (NTSR1) (P30989 whole entry): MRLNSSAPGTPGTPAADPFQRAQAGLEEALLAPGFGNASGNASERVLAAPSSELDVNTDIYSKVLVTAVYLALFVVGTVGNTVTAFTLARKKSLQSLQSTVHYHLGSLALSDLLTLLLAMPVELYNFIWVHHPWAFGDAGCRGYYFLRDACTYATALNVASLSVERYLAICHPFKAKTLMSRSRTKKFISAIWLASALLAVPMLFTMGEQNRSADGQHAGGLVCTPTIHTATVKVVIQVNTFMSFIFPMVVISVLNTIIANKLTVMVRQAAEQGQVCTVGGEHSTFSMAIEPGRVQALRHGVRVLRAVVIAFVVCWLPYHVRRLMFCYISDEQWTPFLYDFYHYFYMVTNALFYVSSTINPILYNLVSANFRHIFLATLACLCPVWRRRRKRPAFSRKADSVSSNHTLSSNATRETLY

[7] = target: T3, type 1 angiotensin II receptor AGTR1 (UniProt P30556 1-359, limits assumed)
T3 sequence (looked up): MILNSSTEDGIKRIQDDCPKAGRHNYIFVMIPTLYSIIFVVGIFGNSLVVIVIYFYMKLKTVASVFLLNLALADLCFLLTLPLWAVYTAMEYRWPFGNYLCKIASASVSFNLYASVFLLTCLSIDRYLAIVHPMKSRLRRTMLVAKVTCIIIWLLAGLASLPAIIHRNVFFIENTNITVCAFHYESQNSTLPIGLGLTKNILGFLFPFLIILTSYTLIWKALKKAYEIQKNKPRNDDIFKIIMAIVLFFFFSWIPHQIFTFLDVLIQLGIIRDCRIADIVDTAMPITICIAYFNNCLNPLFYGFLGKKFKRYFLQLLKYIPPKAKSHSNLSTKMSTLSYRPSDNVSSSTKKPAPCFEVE

[8] = target: T3, type 1 angiotensin II receptor AGTR1; remark: listed apart in the source

T1 sequence (Q16602 23-461 limits assumed, chain 1 of 2): as the sequence (Q16602 23-461 limits assumed, chain 1 of 2) above
T1 sequence (O60895 43-175 limits assumed, chain 2 of 2): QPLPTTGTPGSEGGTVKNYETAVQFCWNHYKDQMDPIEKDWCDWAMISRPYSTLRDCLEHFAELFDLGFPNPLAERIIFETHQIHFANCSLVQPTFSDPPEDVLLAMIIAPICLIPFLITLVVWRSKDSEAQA

Molecule: Wild type ADM positive (human ADM positive control) (from UniProt P35318 95-146) (peptide)
- CLR/RAMP2 Max Activity (% of positive controls) (CLR/RAMP2 receptor [1]): 100

B1: SEQ ID NO: 92 (peptide)
peptide: Palmitoyl-KGCRFGTCTVQKLAHQIYQFTDKDSAPVDPSSPHSY-NH2
modifications: cysteine pairing not given here
- CLR/RAMP1 EC50 (CLR/RAMP1 receptor [2]): 0.4 nM
- CLR/RAMP2 EC50 (CLR/RAMP2 receptor [3]): 0.3 nM
- CLR/RAMP3 EC50 (CLR/RAMP3 receptor): 0.2 nM

B2: SEQ ID NO: 28 (peptide)
peptide: miniPEG-KGCRFGTCTVQKLAHQIYQFTDKDKDNSAPVDPSSPHSY-NH2
modifications: cysteine pairing not given here; also: K(PAL) present, lysine not given here
- CLR/RAMP1 EC50 (CLR/RAMP1 receptor [2]): 0.3 nM
- CLR/RAMP3 EC50 (CLR/RAMP3 receptor): 0.06 nM

B3: SEQ ID NO: 69 (peptide)
peptide: miniPEG-KGCRFGTCTVQKLAHQIYQFTDKDKDNVAPRSKISPQGY-NH2
modifications: ends and bridges not checked; also: K(PAL), position not given here
- CLR/RAMP1 Max Activity (CLR/RAMP1 receptor [2]): 70 % of positive control
- CLR/RAMP2 EC50 (CLR/RAMP2 receptor [3]): 0.6 nM
- CLR/RAMP3 EC50 (CLR/RAMP3 receptor): 0.6 nM

B4: SEQ ID NO: 101 (peptide)
peptide: miniPEG-KGCRFGTCTVQKLAHQIYQFTDKDVAPRSKISPQGY-NH2
modifications: ends and bridges not checked; also: K(PAL), position not given here
- CLR/RAMP2 EC50 (CLR/RAMP2 receptor [3]): 0.3 nM
- CLR/RAMP3 EC50 (CLR/RAMP3 receptor): 0.5 nM

B5: SEQ ID NO: 103 (peptide)
peptide: Palmitoyl-KGCRFGTCTVQKLAHQIYQFTDKDVAPRSKISPQGY-NH2
modifications: ends and bridges not checked
- CLR/RAMP1 EC50 (CLR/RAMP1 receptor [2]): 4.5 nM
- CLR/RAMP2 EC50 (CLR/RAMP2 receptor [3]): 0.7 nM
- CLR/RAMP3 EC50 (CLR/RAMP3 receptor): 0.3 nM

B6: NTSR1 and CLR/RAMP agonist MRL (SEQ ID NO: 223) (peptide)
peptide: XLYENKPRRPYILKGCRFGTCTVQKLAHQIYQFTDKDVAPRSKISPQGY
modifications: Pyr(glu)- at N-terminus; miniPEG between LYENKPRRPYIL and K(PAL); K(PAL); -NH2
- CLR/RAMP1 EC50 (CLR/RAMP1 receptor [4]): 0.8 nM
- CLR/RAMP1 Max Activity (CLR/RAMP1 receptor [4]): 102 % of positive controls
- CLR/RAMP2 EC50 (CLR/RAMP2 receptor [5]): 1 nM
- CLR/RAMP2 Max Activity (CLR/RAMP2 receptor [5]): 70 % of positive controls

B7: NTSR1 agonist and CLR/RAMP antagonist MRL (SEQ ID NO: 224) (peptide)
peptide: XLYENKPRRPYILKVQKLSAPVDPSSPHSY
modifications: not fully specified; Pyr(glu)- at N-terminus; miniPEG between LYENKPRRPYIL and K(Pal); K(Pal); -NH2
- CLR/RAMP1 IC50 (CLR/RAMP1 receptor [4]): < 0.5 nM
- CLR/RAMP1 Max Activity (antagonist) (CLR/RAMP1 receptor [4]): 99 % of positive controls
- CLR/RAMP2 IC50 (CLR/RAMP2 receptor [5]): 1.5 nM
- CLR/RAMP2 Max Activity (antagonist) (CLR/RAMP2 receptor [5]): 100 % of positive controls
- NTSR1 EC50 (calcium flux assay) [6]: 26 nM
- NTSR1 Max Activity [6]: 57 % of positive controls

B8: AGTRL1 and CLR/RAMP agonist MRL (SEQ ID NO: 228) (peptide)
peptide: XRPRLSHKGPLPFKGCRFGTCTVQKLAHQIYQFTDKDVAPRSKISPQGY
modifications: not fully specified; (Glp) at N-terminus; (Nle) in RPRLSHKGP(Nle)PF; miniPEG before K(PAL); K(PAL); -NH2
- CLR/RAMP1 EC50 (CLR/RAMP1 receptor [4]): 0.6 nM
- CLR/RAMP1 Max Activity (CLR/RAMP1 receptor [4]): 130 % of positive controls
- CLR/RAMP2 EC50 (CLR/RAMP2 receptor [5]): 2 nM
- CLR/RAMP2 Max Activity (CLR/RAMP2 receptor [5]): 74 % of positive controls

B9: AGTR1 antagonist/CLR/RAMP agonist MRL (SEQ ID NO: 234) (peptide)
peptide: RVYVHPAKGCRFGTCTVQKLAHQIYQFTDKDVAPRSKISPQGY
modifications: Sar at N-terminus (Sar-RVYVHPA); miniPEG before K(PAL); K(PAL); -NH2
- AGTR1 IC50 (calcium flux assay) [7]: 19.9 nM
- AGTR1 IC50 (calcium flux assay) [8]: 20 nM
- CLR/RAMP1 EC50 (CLR/RAMP1 receptor [4]): 0.3 nM
- CLR/RAMP1 Max Activity (CLR/RAMP1 receptor [4]): 132 % of positive controls
- CLR/RAMP2 EC50 (CLR/RAMP2 receptor [5]): 1 nM
- CLR/RAMP2 Max Activity (CLR/RAMP2 receptor [5]): 86 % of positive controls

B10: SEQ ID NO: 48 (peptide)
peptide: miniPEG-KGCRFGTCTVQKLAHQIYQFTDKDSAPVDPSSPHSY-NH2
modifications: cysteine pairing not given here; also: K(PAL) present, lysine not given here
- CLR/RAMP1 EC50 (CLR/RAMP1 receptor [2]): 0.3 nM
- CLR/RAMP2 EC50 (CLR/RAMP2 receptor [3]): 0.2 nM
- CLR/RAMP3 EC50 (CLR/RAMP3 receptor): 0.07 nM
